Experimental data reported in the nanobody polyreactivity screen of Harvey et al. (2022).

Experiment: yeast display, Sf9 membrane polyspecificity reagent, FACS + sequencing; frameworks hold sequencing errors
In short: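 Nanobodies came from a synthetic yeast display library in Saccharomyces cerevisiae BJ5465, induced with galactose for 36–48 hours and stained for 1 hour at 4 °C with 10% biotinylated, detergent-solubilized Sf9 membrane reagent. Cells were enriched on streptavidin microbeads and then FACS-sorted, with low and high (top ~1%) gates set on anti-HA fluorescence for expression and streptavidin fluorescence for reagent binding. Each polyreactivity label reflects the gate a clone came from. Genes were amplified by colony PCR, sequenced by MiSeq 2 × 250 and filtered by CDR length.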
For “QVQLVESGGGLVHEGGSLRLSFAASGPTFYRYTMGWYRQAPGKERELVATITGGGSTNYADSVKGRFTISRDNAKNTVYLQMNSLKPEDTAVYYCARAVVQSRGPPRYKTPYDYWGQGTQVTVSS”, the “polyreactivity (PSR sort gate)” value was “low polyreactivity”.
In the case of “QDQLVESGGGLVQAGGSLRLSCAPSGFIFEYNAMGWYRQAPGKESELVADISFSGGSTYYADSVKVRFTISRDNAKNTVYLQMKSLKPEDTAGYYCAARALASVSAHKYDYWGQGTQVTVSS”, the “polyreactivity (PSR sort gate)” value is reported as “low polyreactivity”.
In the case of “QVQLQESGGGLVQAGGSLRLSCAASGYIFPTAIMGWYLQATGKERKLVAAINPGSNTYYADSVKGRFTFSRDNAKNTVYLQMYSLKPEDAAVYYCAVSIWLEGTLDYWGQGTQVTVSS”, the “polyreactivity (PSR sort gate)” value is reported as “low polyreactivity”.
For “QVQLVESGGGLVQAGGSLRLSCAASGRIFITYAMGWYRPAPGTERELVAAIDSRGGSTYYADSVKGRFTISRDNAKNTDYLQMNSLKPEDTSVNYCAAEFYYIWLYEYWGQGTQVTVSS”, the “polyreactivity (PSR sort gate)” value was “high polyreactivity”.
With “QVQLVDSGGGLVQAGGSLRLSCAASGSTFRRNAMGWYRQAPGKERELVAAITSSGGGSTYYADSVKGRFTISRDNAKNSVYLQMNSLKPEDSAVYYCAKDFWYRSYDYWGQGTQVTVSS” the “polyreactivity (PSR sort gate)” value was “low polyreactivity”.
In the case of “QVQLVESGGGLVQAGGSLRLSCAASGFIFTQYAMGWYRQAPGKERELVAGITSSGNTYYADSVKGRFTISRDNAKNPVYLQMNSLKPEDTAVYYCAARSASRRMDYWGQGTQVTVSS”, the “polyreactivity (PSR sort gate)” value is reported as “high polyreactivity”.
For “QVQLVESGGGLVQAGGSLRLSCAASGRIFRRYAMGWYRQAPGKERELVAAITSGGSTYADSVKGRFTISRDNAKNTVYLQMNSLKPEDTAVYYCAADDAQGFDYWGQGTQVTVSS”, the “polyreactivity (PSR sort gate)” value was “high polyreactivity”.
For “QVQLVESGGGLVQAGGSLRLSCAASGSIFDPYAMGWYRQAPGKERELVAAIDYSGGSTYYADSVKGRFTISRDNAKNTVYLQMNSLKPEDTAVSYCAADYFWLYYSEYGYWGQGTQVTVSS”, the “polyreactivity (PSR sort gate)” value was “low polyreactivity”.
In the case of “KVQLVESGGGLVQAGGSLRLSCAASGFIFYYYAMGWYRQAPGKERELVAAISTDGGSTYYADSVKGRFTISRDNAKNTVYLQMNSLKPEDTAVYYCNAPYYGWGYWPLEYIRYEYWGQGTQVTVSS”, the “polyreactivity (PSR sort gate)” value is reported as “low polyreactivity”.
For “QVQLVESGGGLVQAGGSLRLSCAASGYIFVVNAMGLDRQAPGKERELVAAIDWGGGSTYADSVKGRFTISRDNAKNTVYLQMNSLKPEDTAVYYCAADLWPYPNDYWGQGTQVTVSS”, the “polyreactivity (PSR sort gate)” value was “low polyreactivity”.
In the case of “QVQLVESGGGLVQAGGSLRLSCAASGSTFFKNTMGWYRQAPGKEREFVAAIRWSTSRTYYADSVKGRFTISRDNAKYTVYLQMTSLKPEDTAVYYCNAGTSLSRRYPEDYYWGQGTQVTVSS”, the “polyreactivity (PSR sort gate)” value is reported as “high polyreactivity”.
With “QVQLVESGGGLVQAGGSLRLSCAASGNIFSIYAMGWYRQAPGKERELVARITRVGSTYADSVKGRFTISRDNAKNTVYLQMNSLNPEDTAVYYCAADKNTPHASLDDFNDYDYWGQGTQVTVSS” the “polyreactivity (PSR sort gate)” value was “high polyreactivity”.
With “QVQLVESGGGLVQAGGSLRLSCAASGSTFYYNTMGWYRQAPGKERELVAAISSSGGTTYYADSVKGRFTISRDNAKNTVYLQMNSLKPEDTAVYYCNVATIWYSYARGYGYWGQGTQVTVSS” the “polyreactivity (PSR sort gate)” value was “high polyreactivity”.
With “QVQLVESGGGLVQAGGSLRLSCAASGNTFWKYAMGWYRQAPGKERELVAAITRGGARTYYADSVKGRFTISRDNAKYSVYLQINSLNPEDTAVYYCAAQYWTEYGSWGQGTEVTVSS” the “polyreactivity (PSR sort gate)” value was “low polyreactivity”.
For “QVQLQESGGGKVHAGGSLRLSCAASGSISYASGMVWYRQAPGKEREFVASIDPGAITNYADSVKGRFTNSHDNAKNTVYLQMNSLKPEDTAVYYCAARVSTTDSHGYWGQGTQVTVSS”, the “polyreactivity (PSR sort gate)” value was “high polyreactivity”.
For “QVQLVESGAGLVQAGGSLRLTCAASGRIFVINAMGWLRQAPGKETELVAPITGGGSTNYADSVKGRFTISRDNAKNTVYLQMNSLKPEDTAVYYCAADYRPVRRFYYSRYDYWGQGTQVTVSS”, the “polyreactivity (PSR sort gate)” value was “low polyreactivity”.
In the case of “QVQLVESGGGLVQAGGSLRLSCAASGSIFRTYAMGWYRQAPGKERELVATITFGGVSTYYADSVKGRFTISRDNAKTTVYVQKTSLKPEDTAVYYCAAEVYTRFWRVYRFDYWGQGTQVTVSS”, the “polyreactivity (PSR sort gate)” value is reported as “low polyreactivity”.
With “QVQLVESGGGLVQAGGSLRLSCAASGFIFQAYAMGWYRQAPGKERELVASISYSGSRTYYADSVKGRFTISRDNAKNTVYLQMNSLKPEDTAVYYCAAGPRYWAPWFGRDYEYWGQGTQVTVSS” the “polyreactivity (PSR sort gate)” value was “high polyreactivity”.
In the case of “QVQLVESGGGLVQAGGSLRLSCAASGSTFPHNAMGWYRQAPGKERELVAAISVGGGSSHYADSVKGRFTISRDNAKNNVYLQMNSLKPEDTAVYYCAKDYAYQYSFVTYDYWGQGTQVTVSS”, the “polyreactivity (PSR sort gate)” value is reported as “low polyreactivity”.
With “QVQLVESGGGLVQAGGSLRLSCAASGSTLGDNGMGWYIQAPGKERELVAAITIGGSTTYADSVKGRFTISRDNAKNTVYLQMNSLKPEDTAVYYCAADQQARDQYSDWTEYDYWGQGTQVNVSS” the “polyreactivity (PSR sort gate)” value was “low polyreactivity”.
For “QVQLVESGGCLVQAGGSLRLSCAASGFIISSYVMGWYSQEPGKERELVAAITSGTSTYYADSVKGRFTFSRDNAKNTVYLQMNSLKPEDTAVYYCTADSYHTYYYWYDYWGQGTQVTVSS”, the “polyreactivity (PSR sort gate)” value was “low polyreactivity”.
With “QVQLVESGGGLVQAGGSLRLSCAASGFIIGGYAMGWYRQAPGKERELVASITSGGRTYYADSVKGRFSISRDNAKNTVFLQMNSLKPEDTAVYDCAARQQTYYYKIYYWGQGSQVTVSS” the “polyreactivity (PSR sort gate)” value was “high polyreactivity”.
With “QVQLVESGGGLVQAGGSLRLSCAASGSIFAVYTMGWYRQAPGKEREVVAAITKSGGRTYYADSVKGRFTISRDNAKNTVYLQMNSLKPEDTAVYYCARRRTIPYTLVDYDSWGQGTQVTVSS” the “polyreactivity (PSR sort gate)” value was “low polyreactivity”.
With “QVQLVESGGGLVQAGGSLRLICVASGRIFLTYAMGWYRQAPGKERELVAAISYSGASTYYADSVKGRFTISRDNAKNTVYLQMNSLKPEDTAVYYCAKDGTQYERQDPAYGYWGQGTQVTVSS” the “polyreactivity (PSR sort gate)” value was “high polyreactivity”.
In the case of “QVQLGESGGGLVQAGGSLRLSCAASGYTFRPYAMGGYRQAPGKESELVAAISSGDSTNYADSVKGRFTISRDNAKNTVYLQMNSLNPEDTAVYYCAARRVGGGFYTWRNPAYEYWGQGTQVTVSS”, the “polyreactivity (PSR sort gate)” value is reported as “high polyreactivity”.
With “QVQLVESGGGLVQAGGSLRLSCAASVSTFYSYVMGWSRQAPGKETELVAAITYSGGRTYYADSVKGRFTISRDNAKNTVYLQMNSLKPEDTAVYYCAKRVFNYQRYDYWGQGTQVTVSS” the “polyreactivity (PSR sort gate)” value was “high polyreactivity”.
In the case of “QVQLVESGGRLVQAGGSLRLSWAASGITFFVNAMGWYRPAPGKERELVAVISRGDSTNYADSVKGRFTISRDNAKNTVYLLMNSLKPEDTAVYYCAADGSRAGLEGNDYWGQGTQVSVSS”, the “polyreactivity (PSR sort gate)” value is reported as “low polyreactivity”.
With “QVQLVESGGGLVQAGGSLRLSCAASGRTFIIYTMGWYRQAPGKEREFVAAITRSGGGTYYADSVKGRFTISRDNAKNTVYLQMNSLKPEDTAVYYCAADRFYDQAYDYWGQGTQVTVSS” the “polyreactivity (PSR sort gate)” value was “low polyreactivity”.
For “QVQLVESGGGLVQAGGSLRLSCAASGRTFAKYAMGWSRPAPGKERELVAAIRWSGGSTYYADSVKGRFTISRDNAKNTVYLQMTSLKPEDTAVYYCATERFVLGLGYDYWGQGTQVTVSS”, the “polyreactivity (PSR sort gate)” value was “high polyreactivity”.
For “QVQLVESGGGLVQAGGSLRLSCAASGRTFRRNAMGWYRQAPGKERELVASINRGGGTNYADSVKGRFTISRDNAKHTVYLQMNSLKPEDTAVYYCAAGPGTYWGYDYWGQGTQVTVSS”, the “polyreactivity (PSR sort gate)” value was “low polyreactivity”.
With “QVQLVESGGGIVQAGGSLRLRCAASGSTFKVYAIGWYRQATGKERELVAAISRGGRTYYADSVKGRFTISRDNAKNTVYLQMNSLKPEDTAVYYCAAGDQYKTRRNGYGYWGQGTQVTLSS” the “polyreactivity (PSR sort gate)” value was “high polyreactivity”.
With “QVQLVESGGGLLQAGGSLRLISAASGGIFIRYAMGWYRQAPGKERALVAAITQSGAGTNYADSVKGRFTISRDNAKNTVYLQKYSLKPEDTAVYYCAKEALLPIRRLTHARTRYNFWGQGTQVTVSS” the “polyreactivity (PSR sort gate)” value was “low polyreactivity”.
With “QVQLVETGGGLVQAGGSLRLSCAASGFTFSYYAMGWYRQAPGKERELVAAISWSGGSTYYADSVKGRFTISRDNAKNTVYLLMNSLKPEDTAVYYSNKVGRAIGPYDYWGQGTQVTVSS” the “polyreactivity (PSR sort gate)” value was “high polyreactivity”.
In the case of “QVQLQESGGGLVQAGGSLRLSCAASGNIVDADIMGWYRQAPGKERELVASITDGGSTNYADSVKGRFTISRDNAKNTVYLQMNSLKPEDTAVYYCAAIAYPDIPTYFDYDSEYFYWGQGTQVTVSS”, the “polyreactivity (PSR sort gate)” value is reported as “low polyreactivity”.
With “QVQLVESGGGLVQAGCSRRLRCAASGFTFRLYAMGWSRQAPGKERELVAATTSGGSTYYADSVKGRFTISRDNAKNTVYLQMNSLKPEDTAVYYCNKLYRTSVEYDYWGQGTLVTVSS” the “polyreactivity (PSR sort gate)” value was “high polyreactivity”.
In the case of “QVQLVESGGGLVQAGGSLRLSCAASGRIFDVYAMGWYRQAPGKERELVAGITYSGGSTYYADSVKGRFTISRDNAKNTVYVQMNSLKPEDTAVYYCAALNGDPYVQLLEDYWGQGTQVTVSS”, the “polyreactivity (PSR sort gate)” value is reported as “low polyreactivity”.
In the case of “QVQLVESGGGLDQAGGSLRLSCAASGIILYRNGMGCYRQAPGKETELVAVISRRGGTYYADSVKGRFTISRDNAKNTVYLQVNSLKPEDTAVYYCAAYLSQKGNFRGGGDYWGQGTQVTVSS”, the “polyreactivity (PSR sort gate)” value is reported as “high polyreactivity”.
In the case of “QVQLVESGGGLVQAGGSLRLSCAASGLTFGKYAMGWYRQAPGKERELVAAISRRGGSTYYADSVKGRFTISRDNANNTVYLQMNSLKPEDTAVYFCNTDTKHTGLDYWGQGTQVTVSS”, the “polyreactivity (PSR sort gate)” value is reported as “high polyreactivity”.
With “QVQLVDSGGGLVQAGGSLRLSCAASGLTFTRYAMGWYRQAPGKERELVAAISKNGGSTYYADSVKGRFTISRDNAKNTVYLQMNSLKPAETAVYYCAARRYGPGRYPEDYWGQGTQVTVSS” the “polyreactivity (PSR sort gate)” value was “high polyreactivity”.
With “QVQLVESGGGVVQAGGSLRLSCAATGSTFWWYAMGWYRQAPGKERELVADITTGGSTNYADSVKGRFTISRDNAKNTVYLQMNSLKPEDTAVYYCNADGVTPYTWRLRYFKYHFDYWGQGTQVTVSW” the “polyreactivity (PSR sort gate)” value was “low polyreactivity”.
With “QLQLVESGGGLVQAGGSLRLSCAASGSTFYAYAMGWYRQAPGKERELVARIRWRGGRTYYADSVKGRFTISRDNAKNTVYLRMNSLKPEDTAVYYCAADLSRAGGGYWGQGTQVTVSS” the “polyreactivity (PSR sort gate)” value was “high polyreactivity”.
In the case of “QVQLVESGGGLVQAGGSLRLSCAASGYIFTTNAMGWYRQAPGKERELVAAISSSGGSTYYADSVKGRFTISRDNAKNTVYLQMNSLKPEDTAVYYCAVRRSTGSRSPPMYYWGQGTQVTVSS”, the “polyreactivity (PSR sort gate)” value is reported as “high polyreactivity”.
In the case of “QVQLVESGGGLVQAGGSLRLSCAASGSIFQYYAMGWYRPAARKERELVAAISWSGGSTYYADSVKGRFTISRDNAKTTVSFLMNSLKPEDTAVYYCNARLYHLDYQGRIIRYDYWGQGTQVTESS”, the “polyreactivity (PSR sort gate)” value is reported as “high polyreactivity”.
